From publication PMC5290273 (Nature Communications, 2017)
Values belong to the molecule of their own block, whether it stands above or below them. No end group written: not given here. *: point of attachment. 5FAM = O=C1OC2(c3ccc(O)cc3Oc3cc(O)ccc32)c2ccc(C(=O)*)cc21; GABA = NCCCC(=O)O

B3: His6-tagged wild-type AFF4^ELLBow (AFF4 301–351) (peptide, UniProt Q9UHB7 301-351, looked up)
chain: PSQPLDASASGDVSCVDEILKEMTHSWPPPLTAIHTPCKTEPSKFPFPTKE

Key:
[1] = target: ELL2^Occ–(Gly-Ser)4–AFF4^ELLBow (human) (UniProt O00472); assay: SEC; Hiload 16/60 (GE) gel filtration; elution volumes; 44 kDa and 17 kDa markers shown in panel a
[2] = target: AFF4, endogenous (human (endogenous in HEK 293T)) (UniProt Q9UHB7)
Sumo-ELL2^Occ (human) = Sumo-ELL2^Occ (human) (UniProt O00472); assay: fluorescence polarisation
[3] = target: Sumo-ELL2^Occ, wild type (human) (UniProt O00472); assay: fluorescence polarisation
Sumo-ELL2^Occ = target: T1, Sumo-ELL2^Occ (human, UniProt O00472 519-640); assay: fluorescence polarisation; settings: both partners purified
T1 sequence (looked up): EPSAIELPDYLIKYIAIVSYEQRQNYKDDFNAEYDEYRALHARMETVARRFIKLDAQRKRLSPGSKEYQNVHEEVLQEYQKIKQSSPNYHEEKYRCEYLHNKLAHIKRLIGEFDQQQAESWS

[4] = target: T2, ELL2^Occ (ELL2 residues 519–640), the ELL2 part of the crystallised fusion (human, UniProt O00472 519-640, selenomethionine (SeMet crystals used for phasing and refinement)); assay: crystal structure; settings: both partners purified
T2 sequence (looked up): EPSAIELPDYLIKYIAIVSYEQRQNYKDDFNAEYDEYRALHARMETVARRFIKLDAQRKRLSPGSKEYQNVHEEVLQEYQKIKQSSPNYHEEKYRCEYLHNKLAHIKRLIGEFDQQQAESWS

Sumo-ELL2^Occ, wild type = target: T3, Sumo-ELL2^Occ, wild type (human, UniProt O00472 519-640); assay: fluorescence polarisation; settings: both partners purified
T3 sequence (looked up): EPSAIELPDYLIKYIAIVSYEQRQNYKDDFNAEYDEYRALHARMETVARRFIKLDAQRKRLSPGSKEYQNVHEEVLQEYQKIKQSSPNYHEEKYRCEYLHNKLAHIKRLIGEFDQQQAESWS

[5] = target: B3; assay: pull-down; settings: both partners purified

AFF4, endogenous (human (endogenous in HEK 293T)), sequence (Q9UHB7 whole entry): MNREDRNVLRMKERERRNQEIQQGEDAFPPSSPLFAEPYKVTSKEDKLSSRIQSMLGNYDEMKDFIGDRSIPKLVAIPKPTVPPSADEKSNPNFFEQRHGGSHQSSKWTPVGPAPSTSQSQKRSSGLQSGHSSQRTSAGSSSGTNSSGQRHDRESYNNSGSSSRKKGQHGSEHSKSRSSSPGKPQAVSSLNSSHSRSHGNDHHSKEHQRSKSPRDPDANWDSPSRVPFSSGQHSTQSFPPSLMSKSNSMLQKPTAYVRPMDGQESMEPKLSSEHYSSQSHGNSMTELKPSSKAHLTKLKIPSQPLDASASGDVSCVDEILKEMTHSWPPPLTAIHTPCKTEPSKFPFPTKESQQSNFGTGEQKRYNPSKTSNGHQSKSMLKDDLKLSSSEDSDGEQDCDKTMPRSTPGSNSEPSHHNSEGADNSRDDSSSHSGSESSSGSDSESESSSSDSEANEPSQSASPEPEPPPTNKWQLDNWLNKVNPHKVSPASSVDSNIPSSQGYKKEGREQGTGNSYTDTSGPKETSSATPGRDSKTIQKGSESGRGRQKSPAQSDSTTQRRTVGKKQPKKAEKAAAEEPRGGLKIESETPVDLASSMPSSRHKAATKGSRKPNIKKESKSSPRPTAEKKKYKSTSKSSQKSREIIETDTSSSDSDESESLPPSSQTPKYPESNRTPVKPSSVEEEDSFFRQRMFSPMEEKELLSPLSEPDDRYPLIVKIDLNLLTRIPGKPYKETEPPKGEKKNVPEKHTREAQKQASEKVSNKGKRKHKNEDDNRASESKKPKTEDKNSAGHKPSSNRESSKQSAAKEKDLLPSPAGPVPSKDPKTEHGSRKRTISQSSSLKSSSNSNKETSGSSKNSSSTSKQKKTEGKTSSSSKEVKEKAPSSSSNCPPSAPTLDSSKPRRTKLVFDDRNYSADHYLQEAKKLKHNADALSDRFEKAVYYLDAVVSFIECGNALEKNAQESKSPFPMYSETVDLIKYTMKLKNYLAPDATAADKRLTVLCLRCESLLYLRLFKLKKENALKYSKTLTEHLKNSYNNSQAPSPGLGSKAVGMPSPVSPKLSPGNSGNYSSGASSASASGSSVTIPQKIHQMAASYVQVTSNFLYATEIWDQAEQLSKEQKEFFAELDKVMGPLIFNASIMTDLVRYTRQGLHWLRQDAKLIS

- stoichiometry N [1]: 2
Molecule: ELL2^Occ–(Gly-Ser)4–AFF4^ELLBow (from UniProt O00472 519-640; Q9UHB7 301-351)

- other (fold less than wild type) [2]: 5
Molecule: HA-tagged ELL2^H559E/H608E/N619A/K625T (from UniProt O00472 1-640) (natural protein)

- Kd (Sumo-ELL2^Occ (human)): 270 nM
Molecule: His6-AFF4^ELLBow P328G/P329G (from UniProt Q9UHB7 301-351) (domain or fragment)

- other [3]: 10 fold
Molecule: His-tagged AFF4^ELLBow (301–351) D317P/E317P (from UniProt Q9UHB7 301-351) (peptide)

- Kd (Sumo-ELL2^Occ): 4000 ± 1570 nM
Molecule: EILKEMTHSWPPPLTAIHTPCKTEPSKFPFPTK (peptide, UniProt Q9UHB7 318-350, looked up) [AFF4 WT, 318-350 peptide]

- Kd (Sumo-ELL2^Occ): 1600 ± 310 nM
B1: His6-AFF4^ELLBow L331D (domain or fragment, human, UniProt Q9UHB7 301-351, looked up)
chain: PSQPLDASASGDVSCVDEILKEMTHSWPPPDTAIHTPCKTEPSKFPFPTKE

- binding result [4]: binds
B2: AFF4^ELLBow (AFF4 residues 301–351), the AFF4 part of the crystallised fusion (domain or fragment, human, UniProt Q9UHB7 301-351, looked up)
chain: PSQPLDASASGDVSCVDEILKEMTHSWPPPLTAIHTPCKTEPSKFPFPTKE
modifications: not fully specified (residue 23); cysteine pairing not given here

Molecule: B3
- Kd (Sumo-ELL2^Occ, wild type): 86 nM

- Kd (Sumo-ELL2^Occ): 5400 ± 1870 nM
B4: His6-AFF4^ELLBow I319D/L320D (domain or fragment, human, UniProt Q9UHB7 301-351, looked up)
chain: PSQPLDASASGDVSCVDEDDKEMTHSWPPPLTAIHTPCKTEPSKFPFPTKE

- other (Sumo-ELL2^Occ, wild type): < 2 fold
B5: His-tagged AFF4^ELLBow (301–351) F345D/F347D (peptide, UniProt Q9UHB7 301-351, looked up)
chain: PSQPLDASASGDVSCVDEILKEMTHSWPPPLTAIHTPCKTEPSKDPDPTKE

- Kd (Sumo-ELL2^Occ): 69 ± 37 nM
B6: His6-AFF4^ELLBow T332K (domain or fragment, human, UniProt Q9UHB7 301-351, looked up)
chain: PSQPLDASASGDVSCVDEILKEMTHSWPPPLKAIHTPCKTEPSKFPFPTKE

- Kd (Sumo-ELL2^Occ): 230 ± 48 nM
B7: His6-AFF4^ELLBow V316D (domain or fragment, human, UniProt Q9UHB7 301-351, looked up)
chain: PSQPLDASASGDVSCDDEILKEMTHSWPPPLTAIHTPCKTEPSKFPFPTKE

- Kd (Sumo-ELL2^Occ): 130 ± 58 nM
B8: His6-AFF4^ELLBow F345D/F347D (domain or fragment, human, UniProt Q9UHB7 301-351, looked up)
chain: PSQPLDASASGDVSCVDEILKEMTHSWPPPLTAIHTPCKTEPSKDPDPTKE

- other (Sumo-ELL2^Occ, wild type): 8 fold
B9: His-tagged AFF4^ELLBow (301–351) I334D (peptide, UniProt Q9UHB7 301-351, looked up)
chain: PSQPLDASASGDVSCVDEILKEMTHSWPPPLTADHTPCKTEPSKFPFPTKE

- Kd (Sumo-ELL2^Occ): 1900 ± 510 nM
B10: His6-AFF4^ELLBow L331D/I334D (domain or fragment, human, UniProt Q9UHB7 301-351, looked up)
chain: PSQPLDASASGDVSCVDEILKEMTHSWPPPDTADHTPCKTEPSKFPFPTKE

- other (Sumo-ELL2^Occ, wild type): 4 fold
B11: His-tagged AFF4^ELLBow (301–351) W327D (peptide, UniProt Q9UHB7 301-351, looked up)
chain: PSQPLDASASGDVSCVDEILKEMTHSDPPPLTAIHTPCKTEPSKFPFPTKE

- Kd (Sumo-ELL2^Occ): 200 ± 50 nM
B12: His6-AFF4^ELLBow P342D (domain or fragment, human, UniProt Q9UHB7 301-351, looked up)
chain: PSQPLDASASGDVSCVDEILKEMTHSWPPPLTAIHTPCKTEDSKFPFPTKE

- Kd (Sumo-ELL2^Occ): 800 ± 180 nM
B13: His6-AFF4^ELLBow D317P/E318P (domain or fragment, human, UniProt Q9UHB7 301-351, looked up)
chain: PSQPLDASASGDVSCVPPILKEMTHSWPPPLTAIHTPCKTEPSKFPFPTKE

- other (Sumo-ELL2^Occ, wild type): < 2 fold
B14: His-tagged AFF4^ELLBow (301–351) E322H (peptide, UniProt Q9UHB7 301-351, looked up)
chain: PSQPLDASASGDVSCVDEILKHMTHSWPPPLTAIHTPCKTEPSKFPFPTKE

- binding result [5]: binds
B15: GST-ELL2 (519–640) K625T (domain or fragment, human, UniProt O00472 519-640, looked up)
chain: EPSAIELPDYLIKYIAIVSYEQRQNYKDDFNAEYDEYRALHARMETVARRFIKLDAQRKRLSPGSKEYQNVHEEVLQEYQKIKQSSPNYHEEKYRCEYLHNKLAHITRLIGEFDQQQAESWS

- binding result [5]: binds
B16: GST-ELL2 (519–640) H608E (domain or fragment, human, UniProt O00472 519-640, looked up)
chain: EPSAIELPDYLIKYIAIVSYEQRQNYKDDFNAEYDEYRALHARMETVARRFIKLDAQRKRLSPGSKEYQNVHEEVLQEYQKIKQSSPNYEEEKYRCEYLHNKLAHIKRLIGEFDQQQAESWS

- Kd (Sumo-ELL2^Occ): 130 ± 33 nM
B17: His6-AFF4^ELLBow E322H (domain or fragment, human, UniProt Q9UHB7 301-351, looked up)
chain: PSQPLDASASGDVSCVDEILKHMTHSWPPPLTAIHTPCKTEPSKFPFPTKE

- Kd (Sumo-ELL2^Occ): 240 ± 60 nM
B18: His6-AFF4^ELLBow K321P (domain or fragment, human, UniProt Q9UHB7 301-351, looked up)
chain: PSQPLDASASGDVSCVDEILPEMTHSWPPPLTAIHTPCKTEPSKFPFPTKE

- other (Sumo-ELL2^Occ, wild type): 3 fold
B19: His-tagged AFF4^ELLBow (301–351) double 328–329 Pro–Gly mutant (peptide, UniProt Q9UHB7 301-351, looked up)
chain: PSQPLDASASGDVSCVDEILKEMTHSWGGPLTAIHTPCKTEPSKFPFPTKE

- Kd (Sumo-ELL2^Occ): 670 ± 210 nM
B20: His6-AFF4^ELLBow I334D (domain or fragment, human, UniProt Q9UHB7 301-351, looked up)
chain: PSQPLDASASGDVSCVDEILKEMTHSWPPPLTADHTPCKTEPSKFPFPTKE

- Kd (Sumo-ELL2^Occ): 370 ± 86 nM
B21: His6-AFF4^ELLBow W327D (domain or fragment, human, UniProt Q9UHB7 301-351, looked up)
chain: PSQPLDASASGDVSCVDEILKEMTHSDPPPLTAIHTPCKTEPSKFPFPTKE

- Kd (Sumo-ELL2^Occ, wild type): > 3000 nM
B22: His-tagged AFF4^ELLBow (301–351) I319D/L320D/M323D (peptide, UniProt Q9UHB7 301-351, looked up)
chain: PSQPLDASASGDVSCVDEDDKEDTHSWPPPLTAIHTPCKTEPSKFPFPTKE

- Kd (Sumo-ELL2^Occ): 2700 ± 1140 nM
B23: His6-AFF4^ELLBow M323D (domain or fragment, human, UniProt Q9UHB7 301-351, looked up)
chain: PSQPLDASASGDVSCVDEILKEDTHSWPPPLTAIHTPCKTEPSKFPFPTKE

- other (Sumo-ELL2^Occ, wild type): > 25 fold
B24: His-tagged AFF4^ELLBow (301–351) I319D/L320D (peptide, UniProt Q9UHB7 301-351, looked up)
chain: PSQPLDASASGDVSCVDEDDKEMTHSWPPPLTAIHTPCKTEPSKFPFPTKE

- binding result [5]: binds
B25: GST-ELL2 (519–640) H559E (domain or fragment, human, UniProt O00472 519-640, looked up)
chain: EPSAIELPDYLIKYIAIVSYEQRQNYKDDFNAEYDEYRALEARMETVARRFIKLDAQRKRLSPGSKEYQNVHEEVLQEYQKIKQSSPNYHEEKYRCEYLHNKLAHIKRLIGEFDQQQAESWS

- other (Sumo-ELL2^Occ, wild type): ~20 fold
B26: His-tagged AFF4^ELLBow (301–351) L331D (peptide, UniProt Q9UHB7 301-351, looked up)
chain: PSQPLDASASGDVSCVDEILKEMTHSWPPPDTAIHTPCKTEPSKFPFPTKE

- other (Sumo-ELL2^Occ, wild type): > 25 fold
B27: His-tagged AFF4^ELLBow (301–351) M323D (peptide, UniProt Q9UHB7 301-351, looked up)
chain: PSQPLDASASGDVSCVDEILKEDTHSWPPPLTAIHTPCKTEPSKFPFPTKE

- other (Sumo-ELL2^Occ, wild type): ~3 fold
B28: His-tagged AFF4^ELLBow (301–351) P342D (peptide, UniProt Q9UHB7 301-351, looked up)
chain: PSQPLDASASGDVSCVDEILKEMTHSWPPPLTAIHTPCKTEDSKFPFPTKE

- binding result (Sumo-ELL2^Occ, wild type): binds
B29: fluorescently labelled AFF1^ELLBow peptide 358–390 (peptide)
peptide: {5FAM-GABA}-EILKEMTHSWPPPLTAIHTPSTAEPSKFPFPTK-NH2
SMILES: CC[C@H](C)[C@H](NC(=O)[C@H](C)NC(=O)[C@@H](NC(=O)[C@H](CC(C)C)NC(=O)[C@@H]1CCCN1C(=O)[C@@H]1CCCN1C(=O)[C@@H]1CCCN1C(=O)[C@H](Cc1c[nH]c2ccccc12)NC(=O)[C@H](CO)NC(=O)[C@H](Cc1c[nH]cn1)NC(=O)[C@@H](NC(=O)[C@H](CCSC)NC(=O)[C@H](CCC(=O)O)NC(=O)[C@H](CCCCN)NC(=O)[C@H](CC(C)C)NC(=O)[C@@H](NC(=O)[C@H](CCC(=O)O)NC(=O)CCCNC(=O)c1ccc2c(c1)C(=O)OC21c2ccc(O)cc2Oc2cc(O)ccc21)[C@@H](C)CC)[C@@H](C)O)[C@@H](C)O)C(=O)N[C@@H](Cc1c[nH]cn1)C(=O)N[C@H](C(=O)N1CCC[C@H]1C(=O)N[C@@H](CO)C(=O)N[C@H](C(=O)N[C@@H](C)C(=O)N[C@@H](CCC(=O)O)C(=O)N1CCC[C@H]1C(=O)N[C@@H](CO)C(=O)N[C@@H](CCCCN)C(=O)N[C@@H](Cc1ccccc1)C(=O)N1CCC[C@H]1C(=O)N[C@@H](Cc1ccccc1)C(=O)N1CCC[C@H]1C(=O)N[C@H](C(=O)N[C@@H](CCCCN)C(N)=O)[C@@H](C)O)[C@@H](C)O)[C@@H](C)O
notes: also called fluorescent peptide
